Experimental data published in the supplement of paper PMC12338614.
± gives the uncertainty stated by the source.

B1: library; numbered along this chain (parent)
chain: MEVVDPQQLGMFTEGELMSVGMDTFIHRIDSTEVIYQPRRKRAKLIGKYLMGDLLGEGSYGKVKEVLDSETLCRRAVKILKKKKLRRIPNGEANVKKEIQLLRRLRHKNVIQLVDVLYNEEKQKMYMVMEYCVCGMQEMLDSVPEKRFPVCQAHGYFCQLIDGLEYLHSQGIVHKDIKPGNLLLTTGGTLKISDLGVAEALHPFAADDTCRTSQGSPAFQPPEIANGLDTFSGFKVDIWSAGVTLYNITTGLYPFEGDNIYKLFENIGKGSYAIPGDCGPPLSDLLKGMLEYEPAKRFSIRQIRQHSWFRKKHPPAEAPVPIPPSPDTKDRWRSMTVVPYLEDLHGADEDEDLFDIEDDIIYTQDFTVPGQVPEEEASHNGQRRGLPKAVCMNGTEAAQLSTKSRAEGRAPNPARKACSASSKIRRLSACKQQ

Variants of: B1
Assay: STK11 functional score (HeLa growth suppression), rescaled enrichment; synonymous median = 1, nonsense median = 0 (normalised score)
Details: with HeLa; variant type: missense
Summary of the method: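 The functional score takes the post/pre-selection log ratio, corrects it to wild type, rescales it to synonymous and nonsense medians, and merges it over codons and replicate transfections, with error from bootstrapping. Counts came from tiled gDNA amplicons sequenced on NextSeq (~2 million reads per tile). The libraries were POPCode codon-randomised, codon-optimised STK11 integrated by Bxb1 at an AAVS1 landing pad in HeLa, three regions with three transfections each.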

STK11 functional score, by site and new letter:
H168: D 0.0708 ± 0.12 | M 0.519 ± 0.14 | A 1.25 ± 0.34 | C 0.168 ± 0.32 | E 1.3 ± 0.24 | S 0.83 ± 0.3 | Y 0.357 ± 0.26 | N 0.275 ± 0.12 | W 0.545 ± 0.6 | I 0.159 ± 0.098 | G 0.533 ± 0.13 | R 0.838 ± 0.47 | V 0.473 ± 0.13 | P 0.0717 ± 0.12 | L 0.263 ± 0.078 | Q 0.947 ± 0.14 | F 0.851 ± 0.51
L167: S 0.241 ± 0.14 | C 1.13 ± 0.77 | Y 0.387 ± 0.46 | K 0.0279 ± 0.15 | R -0.0722 ± 0.082 | N 0.605 ± 0.12 | W -0.183 ± 0.049 | F 1.05 ± 0.23 | H -0.00514 ± 0.083 | D -0.162 ± 0.094 | V 1.15 ± 0.2 | P 0.104 ± 0.11 | A 0.629 ± 0.09 | E -0.113 ± 0.12 | I 1.44 ± 0.25 | G 0.121 ± 0.079
C158: R 1.49 ± 0.35 | A 1.37 ± 0.59 | H 1.53 ± 0.32 | V 0.897 ± 0.2 | G 0.418 ± 0.096 | W 0.384 ± 0.11 | I 1.51 ± 0.3 | L 0.856 ± 0.2 | S 0.627 ± 0.15 | M -0.0261 ± 0.52
Q159: H 0.00983 ± 0.14 | V 0.324 ± 0.074 | W 0.972 ± 0.42 | N 0.806 ± 0.79 | K 0.6 ± 0.18 | P 0.757 ± 0.17 | R 1.03 ± 0.33 | S 0.691 ± 0.22 | I 0.332 ± 0.27 | M 1.14 ± 0.096 | L 0.623 ± 0.11 | E 1.25 ± 0.55 | D 1.12 ± 0.46 | A 1.13 ± 0.21 | C 0.889 ± 0.35 | G 1.1 ± 0.15 | Y 1.03 ± 0.46
H154: F 0.39 ± 0.065 | R 0.997 ± 0.16 | A 1.49 ± 0.24 | G 0.183 ± 0.15 | M 0.597 ± 0.088 | Y 1.26 ± 0.12 | W 0.87 ± 0.091 | V 0.314 ± 0.077 | I 0.492 ± 0.09 | P -0.204 ± 0.089 | S 0.47 ± 0.11 | N 0.196 ± 0.14 | L 0.189 ± 0.086
L164: I 1.16 ± 0.17 | H 0.0804 ± 0.11 | P -0.0524 ± 0.1 | V 0.774 ± 0.13 | W 0.051 ± 0.1 | R -0.302 ± 0.12 | N 0.0402 ± 0.26 | T 0.864 ± 0.19 | F -0.208 ± 0.089 | G -0.142 ± 0.098 | S 0.135 ± 0.1 | C 1.21 ± 0.15
A153: P -0.338 ± 0.074 | I 0.28 ± 0.27 | F 0.0706 ± 0.09 | M -0.195 ± 0.097 | E 0.243 ± 0.093 | Y -0.0988 ± 0.073 | D -0.157 ± 0.1 | R 0.204 ± 0.096 | V 0.499 ± 0.1 | G 1.13 ± 0.13 | W -0.261 ± 0.095 | L 0.0918 ± 0.087
G171: V 1.25 ± 0.26 | S 1.41 ± 0.46 | W 1.53 ± 0.11 | C 0.479 ± 0.091 | A 1.18 ± 0.4 | R 1.24 ± 0.38 | L 1.43 ± 0.39 | N 1.69 ± 0.14 | I 1.46 ± 0.18
I177: S -0.0448 ± 0.12 | M 0.6 ± 0.17 | V 1.06 ± 0.19 | P 0.166 ± 0.58 | A 0.128 ± 0.22 | F 0.54 ± 0.074 | G -0.017 ± 0.094 | Y 0.215 ± 0.075 | R -0.0129 ± 0.087 | H -0.12 ± 0.21 | D 0.0262 ± 0.27 | L 0.956 ± 0.15 | W -0.249 ± 0.086
D176: T -0.105 ± 0.43 | F -0.058 ± 0.09 | K -0.194 ± 0.099 | S -0.0857 ± 0.087 | R -0.0226 ± 0.15 | M 0.0191 ± 0.14 | W -0.0742 ± 0.054 | I -0.156 ± 0.11 | Y -0.343 ± 0.096 | C -0.0937 ± 0.092 | P 0.0199 ± 0.077 | L -0.164 ± 0.061 | E 0.211 ± 0.1 | N -0.273 ± 0.098 | H -0.154 ± 0.14 | V 0.0775 ± 0.082 | G -0.169 ± 0.064 | A -0.0851 ± 0.1
Q170: E 0.234 ± 0.13 | K 0.664 ± 0.14 | T 0.156 ± 0.35 | C 1.51 ± 0.44 | D -0.0762 ± 0.095 | V 1.26 ± 0.37 | A 0.916 ± 0.14 | R 1.16 ± 0.33 | S 0.916 ± 0.13 | G 1.37 ± 0.37 | M 1.54 ± 0.25 | L 0.967 ± 0.15 | W 1.17 ± 0.12 | F 0.834 ± 0.45 | P 0.0405 ± 0.082 | H 0.738 ± 0.12
S169: I 0.231 ± 0.09 | W 1.25 ± 0.35 | P 0.391 ± 0.098 | G 1.29 ± 0.33 | T 1.22 ± 0.74 | L 0.7 ± 0.33 | R 0.882 ± 0.35 | A 1.09 ± 0.49 | H 1.43 ± 0.33 | Y 1.54 ± 0.34 | V 0.428 ± 0.21
F157: V -0.0226 ± 0.15 | L 0.19 ± 0.45 | M 0.503 ± 0.088 | W 0.714 ± 0.12 | G -0.101 ± 0.099
G163: V 0.0343 ± 0.1 | F -0.122 ± 0.17 | Y -0.0827 ± 0.069 | H -0.383 ± 0.17 | S 0.402 ± 0.13 | C 0.245 ± 0.11 | L 0.386 ± 0.3 | P -0.013 ± 0.11 | R 0.0418 ± 0.45 | E -0.0159 ± 0.21 | W 0.91 ± 0.22 | T 0.008 ± 0.28 | A 1.05 ± 0.2
V173: A 0.314 ± 0.31 | G 1.15 ± 0.33 | W 0.343 ± 0.097 | S 1.23 ± 0.4 | P 0.128 ± 0.49 | Y 1.04 ± 0.13 | C 0.883 ± 0.57 | R 0.37 ± 0.16 | I 1.52 ± 0.25 | Q 1.46 ± 0.14 | H 0.45 ± 0.086 | F 0.953 ± 0.33 | L 0.137 ± 0.13
Y156: W 0.28 ± 0.076 | C 0.324 ± 0.12 | T 1.13 ± 0.67 | G 0.044 ± 0.076 | P 0.418 ± 0.19 | M 1.69 ± 0.25 | A 0.114 ± 0.64 | I 1.04 ± 0.24 | Q 0.148 ± 0.081 | V 1.06 ± 0.36 | D 0.293 ± 0.4 | S 0.762 ± 0.14 | F 1.27 ± 0.084 | L 1.34 ± 0.24 | E 1.15 ± 0.36
I161: W -0.296 ± 0.057 | P 0.918 ± 0.66 | C 1.03 ± 0.48 | Y 0.129 ± 0.091 | N 0.158 ± 0.13 | T 1.31 ± 0.66 | G 0.264 ± 0.092 | D -0.303 ± 0.097 | F -0.101 ± 0.25 | R -0.0321 ± 0.14 | H -0.2 ± 0.12 | S -0.0934 ± 0.18 | E -0.456 ± 0.065 | V 0.514 ± 0.39 | L 0.912 ± 0.23 | M 1.31 ± 0.26
C151: W 0.903 ± 0.12 | T 0.991 ± 0.13 | S 1.13 ± 0.38 | V 1.17 ± 0.39 | Y 1.45 ± 0.41 | Q 1.54 ± 0.39 | P 0.45 ± 0.22 | R 1.07 ± 0.59
Y166: W 0.846 ± 0.087 | C 0.804 ± 0.08 | L 0.75 ± 0.13 | G 1.23 ± 0.34 | T 1.11 ± 0.67 | S 0.964 ± 0.3 | A 1.47 ± 0.24 | D -0.0245 ± 0.5 | P 0.994 ± 0.26 | K 1.56 ± 0.29 | I 1.21 ± 0.56 | F 1.05 ± 0.27 | V 1.14 ± 0.22 | M 0.651 ± 0.08
Q152: S 0.733 ± 0.51 | E 0.844 ± 0.51 | V 1.19 ± 0.27 | L 0.195 ± 0.69 | P 0.0642 ± 0.62 | C 1.26 ± 0.19
G155: A 1.27 ± 0.57 | R 0.742 ± 0.4
D162: W 1.6 ± 0.22 | E 0.171 ± 0.15 | T 1.4 ± 0.28 | R 1.55 ± 0.43 | F 1.15 ± 0.4 | I 1.05 ± 0.58 | S 1.26 ± 0.13 | V 1.17 ± 0.11 | C 1.28 ± 0.15 | L 1.04 ± 0.23 | H 0.6 ± 0.53 | A 0.819 ± 0.49 | M 1.62 ± 0.2
E165: K 0.973 ± 0.53 | L 0.448 ± 0.22 | Q 0.995 ± 0.58 | T 0.129 ± 0.15 | W 0.516 ± 0.11 | S 1.39 ± 0.38 | R 1.18 ± 0.59 | Y 1.24 ± 0.15 | M 0.0982 ± 0.39 | V 0.465 ± 0.35 | G 0.569 ± 0.084
I172: L 0.71 ± 0.11 | G 0.806 ± 0.26 | F 0.904 ± 0.34 | S 0.549 ± 0.27 | R 0.401 ± 0.096 | P -0.291 ± 0.062 | W 0.519 ± 0.11 | V 1.21 ± 0.39 | N 0.174 ± 0.13 | A 1.02 ± 0.78 | M 0.35 ± 0.093
K175: I 0.589 ± 0.096 | Q 1.19 ± 0.2 | G 0.847 ± 0.18 | V 0.466 ± 0.1 | A 0.904 ± 0.14 | N 0.914 ± 0.55 | L 1.11 ± 0.18 | S 0.884 ± 0.23 | Y 0.592 ± 0.48 | P -0.179 ± 0.081 | R 1.47 ± 0.16 | F 0.988 ± 0.35 | T 1.07 ± 0.18 | W 0.478 ± 0.09
H174: C 0.891 ± 0.41 | I 0.662 ± 0.19 | S 0.695 ± 0.29 | T 1.63 ± 0.19 | Y 1.11 ± 0.27 | G 0.326 ± 0.24 | W 1.02 ± 0.37 | F 0.138 ± 0.044 | A 0.322 ± 0.12 | L 0.234 ± 0.067 | N 0.317 ± 0.17 | K 0.153 ± 0.09 | V 0.69 ± 0.11 | P 0.0698 ± 0.089
L160: I 1.17 ± 0.12 | R -0.13 ± 0.095 | G -0.0371 ± 0.071 | H 0.212 ± 0.28 | E 0.305 ± 0.092 | F 0.36 ± 0.21 | W 0.0949 ± 0.08 | V 1.26 ± 0.14 | P -0.129 ± 0.071 | Q 0.000621 ± 0.18 | S 0.508 ± 0.1 | A 1.07 ± 0.18
K178: A 0.756 ± 0.67 | E -0.00538 ± 0.11 | C 0.883 ± 0.25
